Measurements from the RNAGym collection of RNA variant scans (doi:10.1073/pnas.2313332121).

B1: TPR t1 (parent)
chain: GACCAAUCUGCCCUCAGAGCUCGAGAACAUCUUCGGAUGCAGAGGAGGCAGGCUUCGGUGGCGCGAUAGCGCCAACGUCCUCAACCUCCAAUGCAUCCCACCACAUGAUGAUGCCUGAAGAGCCUUGGUUUUUUG

Variants of: B1
Experiment: polymerase ribozyme fitness, log enrichment relative to wild type (log ratio); higher = more active; in vitro selection for triplet polymerase activity
Procedure, shortened: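 Libraries of mutants in each subunit of a heterodimeric triplet polymerase ribozyme were generated by PCR and transcribed. In triplicate, each went through one in vitro selection round: annealing with biotinylated primer, partner subunit and triplets; frozen incubation at −7 °C; gel excision of extended constructs; streptavidin-bead capture; RT-PCR. Fitness, taken from Illumina sequencing of input and output libraries, is the logarithm of a genotype's enrichment over wild-type enrichment, averaged across replicates with inverse-variance weights. The logarithm is base 2, and genotypes needed ≥10 input reads and ≥1 read per output to be kept.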

Variant	polymerase ribozyme fitness (log ratio)
G45C A100G G120A U133A	-2.23
G44A U59A G63A C89G C115A C124A U129A	-5.52
G45C G51U G57U C99A G117C	-7.29
A43C G45U	-3.71
G44C G48U C53A G61C U112G	-6.03
A43G A50C C85U C89A	-3.67
G45A C73U C88A U112C G122U	0.105
G44A A46U G47C A74G	-1.99
G44C U59C	-1.09
A43G C101U	-1.47
A43U C123G	0.036
G44U A46G G117A C124U	-1.75
G45A G61A A74U	-1.29
A43C G61A C85G G113A C115U	-5.36
G45A G120C	0.183
A43C U125G	-2.24
G45A G71A G113A C124U	-2.34
A43C G71U C88A C123U	-3.41
G44C G63U C79U	-1.08
G45A C79G G107A	-7.38
G44U C123U	0.929

Variant	polymerase ribozyme fitness (log ratio)
G44U G77C	-2.05
G45A U59G G60A A100U	-2.28
G44U G60C A91U A121G	-0.902
A43C G61A C101G	-4.23
A43U G120C	-0.477
G44A A46U A91G U92A	-5.83
A43U C102A C114A	-5.12
G44C G93A	-0.685
G44C G93U	-2.85
A43U G44U A74U U87A	-5
G44A G52A C56U	-1.35
G44A C49U U106G	-5.12
A43G C85G	-2.89
G44C G61A A84C	-0.524
A43G C114G G135U	-3.37
G45A A84C G120C G135A	0.21
G45A A50U C124U U125G	-0.0022
G45A C56A	-0.425
G44C A50C G60U	-1.12
G45A U81G	-3.71
G44U U96C G120A G122A U129G	-2.51

Variant	polymerase ribozyme fitness (log ratio)
G45C U87C	-0.513
A43U A50G C72A G93C A95C C115U	-4.47
G45A C72U G110C	-4.39
G44A C89U C104A U106A	-2.1
G45C G47A	-3.52
G45A G107A A121C	-6.43
A43U C56G C114U	-2.92
A43G C88G G113U A121G	-3.25
A43C C101G A121U	-2.62
G45A G61U C70U G110U U125C	-3.2
A43U U54A G122U	-2.82
A43G C73U C79A U96G A118U	-4.39
G44C U54A G61U C85U U87A C102A	-4.76
G45C C79A A121G	-0.868
G44U A50U C101A C115A	-2.8
G44C G63A A121G	0.865
A43G G61C	-4.3
G44A G61C U78C C79G U112G	-3.26
G44U G45C U78C	-3.51
A43G G60U	-1.12
G44C U125A	-1.22

Variant	polymerase ribozyme fitness (log ratio)
G44A C82G	-1.66
A43U G57C C98U U126A	-4.59
G45C A84G C97A	-6.72
G44U A74U C88A U133G	-2.41
A43U G71U U116C G128C	-5.7
G45A U55A	0.00657
G44A C53A C56A	-1.42
G45C G51A G63A U78A C123G	-4.51
G44U C64G	-7.29
G44U C49A G77U G120C U130G	-2.08
G44U G58C C62A	-2.17
G44U G107A	-6.9
G44C U54A C64U C82U C114G	-4.69
A43U G58U U126G	-3.62
G44U A46C	-2.3
G44U C56A G57A C104U U106G	-2.38
G45C G48U G52U C76U	-4.18
G44A G71C C89U	-1.03
G44C C102A	-3.4
A43G C80A C115G	-7.29
